# Reference: article PMC13649778, “Unraveling single-molecule reactions via multiplexed in-situ DNA sequencing”
# B1: CAPcons (consensus, pure; CAPcons_C, top 5G) (dsDNA)
# DNA 1: GGCAGTGAGCTCTACGCAATAAATGTGATCTAGATCACATTTTAGGCAC
# DNA 2: GTGCCTAAAATGTGATCTAGATCACATTTATTGCGTAGAGCTCACTGCC
# B2: CAPcons library member CAPcons_G (top 5C) (dsDNA)
# DNA 1: GGCAGTGAGCTCTACGCAATAAATCTGATCTAGATCACATTTTAGGCAC
# DNA 2: GTGCCTAAAATGTGATCTAGATCAGATTTATTGCGTAGAGCTCACTGCC
# B3: CAPcons library member CAPcons_C (consensus, top 5G) (dsDNA)
# DNA 1: GGCAGTGAGCTCTACGCAATAAATGTGATCTAGATCACATTTTAGGCAC
# DNA 2: GTGCCTAAAATGTGATCTAGATCACATTTATTGCGTAGAGCTCACTGCC
# B4: CAPcons library member CAPcons_T (top 5A; table letter taken as bottom-strand base) (dsDNA)
# DNA 1: GGCAGTGAGCTCTACGCAATAAATATGATCTAGATCACATTTTAGGCAC
# DNA 2: GTGCCTAAAATGTGATCTAGATCATATTTATTGCGTAGAGCTCACTGCC
# B5: CAPcons position 5 C:G variant (pure; CAPcons_G) (dsDNA)
# DNA 1: GGCAGTGAGCTCTACGCAATAAATCTGATCTAGATCACATTTTAGGCAC
# DNA 2: GTGCCTAAAATGTGATCTAGATCAGATTTATTGCGTAGAGCTCACTGCC
# B6: CAPcons library member CAPcons_A (top 5T; table letter taken as bottom-strand base) (dsDNA)
# DNA 1: GGCAGTGAGCTCTACGCAATAAATTTGATCTAGATCACATTTTAGGCAC
# DNA 2: GTGCCTAAAATGTGATCTAGATCAAATTTATTGCGTAGAGCTCACTGCC
# Legend:
# [1] = molecular target: T1, Alexa647-CAP (CAP-(Cys17;Ser178), catabolite activator protein) (Escherichia coli, UniProt P0ACJ8 1-210, H18C;C179S); experiment: single-molecule fluorescence (koff/kon); 0.2 mM cAMP, 10 mM Mg2+; 40 mM Tris pH 8, 100 mM KCl, 10 mM MgCl2, 5% glycerol, 0.2 mM cAMP, 1 mM TROLOX, glucose oxidase/catalase; 1.25 nM (pure) or 2.5 nM (library) Alexa647-CAP; temperature not stated; settings: protein: recombinant; tags: His6; Alexa647 maleimide (40% labelled); chain copies: 2; label: Cy3B at top position 13; 5' biotin on bottom strand; blunt
# [2] = molecular target: T1, Alexa647-CAP (CAP-(Cys17;Ser178), …); experiment: single-molecule fluorescence (SPIN-Seq library); 0.2 mM cAMP, 10 mM Mg2+; 40 mM Tris pH 8, 100 mM KCl, 10 mM MgCl2, 5% glycerol, 0.2 mM cAMP, 1 mM TROLOX, glucose oxidase/catalase; 1.25 nM (pure) or 2.5 nM (library) Alexa647-CAP; temperature not stated; settings: protein: recombinant; tags: His6; Alexa647 maleimide (40% labelled); chain copies: 2; label: Cy3B at top position 11; 5' biotin on bottom strand; blunt
binder,measurement,setting,value
B1,Kd,[1],9.1 ± 0.6 nM
B2,Kd,[2],20.1 ± 0.9 nM
B3,Kd,[2],10.6 ± 0.6 nM
B4,Kd,[2],24.4 ± 0.8 nM
B5,Kd,[1],20.2 ± 1.3 nM
B6,Kd,[2],29.1 ± 1.6 nM
